According to PMC8076793:

Target: DexA (bacteriophage T4)
Experiment: SEC; Äkta pure, HiLoad 16/600 Superdex 75 pg (Cef, MRH, Pin, DexA) or Superdex 200 pg (Y04L, Gp57B), in the respective dialysis buffers (Supplementary Table 3)

DexA, sequence (P04536 whole entry): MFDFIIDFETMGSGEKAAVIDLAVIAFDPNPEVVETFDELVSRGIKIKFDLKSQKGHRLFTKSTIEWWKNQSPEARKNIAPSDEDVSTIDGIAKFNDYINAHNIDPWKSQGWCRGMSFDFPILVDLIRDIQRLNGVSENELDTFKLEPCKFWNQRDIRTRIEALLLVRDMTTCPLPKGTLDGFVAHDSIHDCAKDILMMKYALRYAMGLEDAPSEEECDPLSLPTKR

- stoichiometry N: 2
Substance: DexA (enzyme)
